Data as given in patent US20250268938A1, “SMALL MOLECULE-REGULATED CELL SIGNALING EXPRESSION SYSTEM” (Outpace Bio, Inc., priority 2021, published 2025).

Tested on: Jurkat cells
Assay: Kill switch percent killing in Jurkat cells (flow cytometry)
Format: cell-based
Settings: for percent killing in the absence of a scaffolded NS3a: danoprevir or grazoprevir treatment, 500 nM
Experimental: Kill switch-positive cells (le5) were incubated for 24-48 hours with inducer drug before staining and analysis for death. Conditions were normalized to contain about 50% transduction positive (+) cells by adding untransduced Jurkat or primary T cells in order to get accurate statistics on death.
Flow cytometry was performed on a Ze5 cytometer (Biorad). To determine expression of markers, between 1×10^5-2×10^5 total cells were transferred to a U-bottom 96 well culture dish (Corning). Cells were washed twice with Cell Staining Buffer (BioLegend), then stained with Zombie Violet (1:1000, BioLegend) and ROR1-FC for ROR1-specific CAR constructs (20 min at room temperature). Cells were washed twice in Cell Staining Buffer, then stained with Annexin V-PE (BD) in 1× Annexin V Binding Buffer (BD) for 15 min at room temperature. After staining, cells were washed once with Annexin V Binding Buffer, resuspended in AnneinV Binding Buffer and immediately analyzed.
Flow cytometry data was analyzed using FlowJo 10 (Tree Star). Percent killing was calculated by gating on live cells, then calculating 100*((percent GFP positive DMSO condition)−(percent GFP positive drug condition))/(percent GFP positive DMSO condition).
We first tested for drug-induced death of Jurkat cells by fusing NS3a and DNCR2 separately to the catalytic domain of caspase-9 (NCDC). The small molecule inducible homodimer FKBP-F36V (iCasp9), which is dimerized by AP1903 (rimiducid) and the inducible heterodimer FKBP/rapamycin/FRB dimer (rapaCasp9) were used as controls. Briefly, Jurkat cells expressing NCDC, iCasp9, or rapaCasp9 were exposed to danoprevir, rimiducid or rapamycin, respectively, for 24 hours and analyzed by flow cytometry with gating set to measure killing in the top about 10% of cells expressing the highest amount of the GFP kill switch transduction marker.
To evaluate the kill switch designs of FIG. 8A, constructs were expressed in Jurkat cells, treated with 500 nM danoprevir (DNCR2-casp-9) or 500 nM grazoprevir (GNCR1-casp-9) and cell death measured by percent killing as described herein above.
The miniaturized versions of DNCR2, D1 and D9, were fused to caspase-9 and co-expressed in Jurkat cells with homo-oligomerized NS3a scaffolds. We also evaluated a CAR construct that included an additional copy of NS3a (CAR-2×NS3a). The original DNCR2-casp-9 was used as a control. Jurkat cells expressing different DNCR2 variants fused to caspase-9 along with CAR-NS3a, CAR-NS3a-NS3a, or dimer-NS3a were treated with 500 nM danoprevir and cell death was measured by percent killing as described herein above.
We explored the ability of other human killing domains to induce cell death in Jurkat and primary human T cells. We fused FKBP-F36V to a panel of killing domains that included caspase-9 D330A, caspase-9, caspase-1, caspase-4, and the necroptosis-inducing protein RIPK3. Briefly, Jurkat and primary human CD4+/CD8+ T cells expressing FKBP(F36V)-fused killing domains were treated with 10 nM rimiducid and cell death was measured by percent killing as described herein above.

Molecule | percent killing in the absence of a scaffolded NS3a | other results
hexamer-NS3a: NS3a fused to C-terminus of designed homo-oligomeric helical bundle, hexamer (SEQ ID NO: 43) (protein) MTEDEIRKLRKLLEEAEKKLKKLEDKTRRSEEISKTDDDPKAQSLQLIAESLMLIAESLLIIAISLLLSSRNGSASGSASMKKKGSVVIVGRINLSGDTAYSQQTRGLEGCQETSQTGRDKNQVEGEVQVVSTATQSFLATSINGVLWTVYHGAGTRTIASPKGPVTQMYTNVDKDLVGWQAPQGSRSLTPCTCGSSDLYLVTRHADVIPVRRRGDSRGSLLSPRPISYLKGSAGGPLLCPAGHAVGIFRAAVSTRGVAKAVDFIPVESLETTMRSP |  | percent killing, NS3a scaffold with GNCR1-casp-9 (500 nM grazoprevir): modest death
dimer-NS3a: NS3a fused to C-terminus of designed homo-oligomeric helical bundle, dimer (SEQ ID NO: 42) (protein) MTRTEIIRELERSLREQEELAKRLKELLRELERLQREGSSDEDVRELLREIKELVEEIEKLAREQKYLVEELKRQDGSASGSASMKKKGSVVIVGRINLSGDTAYSQQTRGLEGCQETSQTGRDKNQVEGEVQVVSTATQSFLATSINGVLWTVYHGAGTRTIASPKGPVTQMYTNVDKDLVGWQAPQGSRSLTPCTCGSSDLYLVTRHADVIPVRRRGDSRGSLLSPRPISYLKGSAGGPLLCPAGHAVGIFRAAVSTRGVAKAVDFIPVESLETTMRSP |  | percent killing, NS3a scaffold with DNCR2-casp-9 (500 nM danoprevir): comparable killing to iCasp9
DNCR2-casp-9: caspase-9 fused to DNCR2 (protein) MSSDEEEARELIERAKEAAERAQEAAERTGDPRVRELARELKRLAQEAAEEVKRDPSSSDVNEALKLIVEAIEAAVDALEAAERTGDPEVRELARELVRLAVEAAEEVQRNPSSSDVNEALHSIVYAIEAAIFALEAAERTGDPEVRELARELVRLAVEAAEEVQRNPSSRNVEHALMRIVLAIYLAEENLREAEESGDPEKREKARERVREAVERAEEVQRDPSGWLNHSGSASGSGGFGDVGALESLRGNADLAYILSMEPCGHCLIINNVNFCRESGLRTRTGSNIDCEKLRRRFSSLHFMVEVKGDLTAKKMVLALLELAQQDHGALDCCVVVILSHGCQASHLQFPGAVYGTDGCPVSVEKIVNIFNGTSCPSLGGKPKLFFIQACGGEQKDHGFEVASTSPEDESPGSNPEPDATPFQEGLRTFDQLAAISSLPTPSDIFVSYSTFPGFVSWRDPKSGSWYVETLDDIFEQWAHSEDLQSLLLRVANAVSVKGIYKQMPGCFNFLRKKLFFKTSGSGATNFSLLKQAGDVEENPG | did not induce Jurkat death | 
GNCR1-casp-9: caspase-9 fused to GNCR1 (protein) MDIEKLCKKAEEEAKEAQEKADELRQRHPDSQAAEDAEDLANLAVAAVLTACLLAQEHPNADIAKLCIKAASEAAEAASKAAELAQRHPDSQAARDAIKLASQAARAVILAIMLAAENPNADIAKLCIKAASEAAEAASKAAELAQRHPDSQAARDAIKLASQAAEAVERAIWLAAENPNADIAKKCIKAASEAAEEASKAAEEAQRHPDSQKARDEIKEASQKAEEVKERCKSGSASGSGGFGDVGALESLRGNADLAYILSMEPCGHCLIINNVNFCRESGLRTRTGSNIDCEKLRRRFSSLHFMVEVKGDLTAKKMVLALLELAQQDHGALDCCVVVILSHGCQASHLQFPGAVYGTDGCPVSVEKIVNIFNGTSCPSLGGKPKLFFIQACGGEQKDHGFEVASTSPEDESPGSNPEPDATPFQEGLRTFDQLDAISSLPTPSDIFVSYSTFPGFVSWRDPKSGSWYVETLDDIFEQWAHSEDLQSLLLRVANAVSVKGIYKQMPGCFNFLRKKLFFKTS | did not induce Jurkat death | 
